The values that follow come from patent US20190023745A1.

Test [1] has as its target Zika virus MR766 envelope (E) protein, on virus particles (Zika virus strain MR766) (UniProt Q32ZE1). Briefly: cell-based or functional assay.
Test [2] addresses Zika virus H/PF/2013 envelope (E) protein, on virus particles (Zika virus strain H/PF/2013). The experiment in a line: cell-based or functional assay.

In test [1], EDE1 C8 monoclonal antibody gave an EC50, neutralization in Vero cells of 0.89 ng/mL.

In test [2], EDE1 C10 monoclonal antibody displayed a PRNT50 (plaque reduction neutralization test, BHK-21 cells) of 0.024 µg/mL. This substance returned an EC50, neutralization in Vero cells in test [1] of 0.34 ng/mL.
